Positions count from the first letter of the chain named. Names may count otherwise.
How the values were obtained:
[1] = biological target: T1, thrombin (human, UniProt P00734 328-622); test: Kapp IIa/prog relative to plasma.at3
[2] = biological target: T2, factor Xa (human, UniProt P00742 41-179; P00742 235-488, limits assumed); test: factor Xa prog: pseudo-first-order loss of chromogenic activity, no heparin, 25 C
T2 construct: also called fXa; human factor Xa
Method: (§1) Polybrene was added with the chromogenic substrate to quench the heparin dependent reaction. […] This was plotted against the heparin concentration to calculate the second-order rate constant for the inhibition by the heparin-ATIII complex, (Kₕₑₚ) from the equation Kobs=Kₕₑₚ[H]ₒ([AT]ₒ/[AT]ₒ+Kd)+Kuncat[AT]ₒ

[3] = biological target: T1, thrombin; test: cell-based or functional assay
[4] = biological target: T2, factor Xa; test: cell-based or functional assay
[5] = biological target: T1, thrombin; test: thrombin prog: pseudo-first-order loss of chromogenic activity, no heparin, 25 C
Method: as §1

[6] = biological target: T2, factor Xa; test: Kapp fXa/prog relative to plasma.at3
[7] = biological target: T2, factor Xa; test: Kapp fXa/hep relative to plasma.at3
[8] = biological target: T1, thrombin; test: Kapp IIa/hep relative to plasma.at3
[9] = biological target: human thrombin (human, UniProt P00734 328-622); test: residual enzyme activity against time, pseudo-first-order, progressive (no heparin)
[10] = biological target: T3, human neutrophil elastase (human, UniProt P08246 30-247, limits assumed); test: cell-based or functional assay
T3 sequence (looked up): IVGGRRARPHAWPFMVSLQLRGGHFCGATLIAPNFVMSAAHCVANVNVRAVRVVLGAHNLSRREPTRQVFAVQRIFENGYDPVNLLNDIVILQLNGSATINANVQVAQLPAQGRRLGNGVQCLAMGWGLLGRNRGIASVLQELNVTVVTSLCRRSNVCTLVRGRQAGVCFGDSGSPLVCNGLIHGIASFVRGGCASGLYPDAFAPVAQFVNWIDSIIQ

[11] = biological target: T4, human factor Xa (human, UniProt P00742 41-179; P00742 235-488, limits assumed); test: residual enzyme activity against time, pseudo-first-order, with heparin
T4 construct: the active enzyme is a two-chain form of it; also called fXa
Method: Polybrene was added with the chromogenic substrate to quench the heparin dependent reaction. The observed pseudo-first-order rate constants were calculated for each heparin (1 nM-5 nM) concentration from the slope of the log of residual proteinase activity vs. time. This was plotted against the heparin concentration to calculate the second-order rate constant for the inhibition by the heparin-ATIII complex, (Kₕₑₚ) from the equation Kobs=Kₕₑₚ[H]ₒ([AT]ₒ/[AT]ₒ+Kd)+Kuncat[AT]ₒ

[12] = biological target: T4, human factor Xa; test: residual enzyme activity against time, pseudo-first-order, progressive (no heparin)

T4 sequence (P00742 41-179 limits assumed, chain 1 of 2): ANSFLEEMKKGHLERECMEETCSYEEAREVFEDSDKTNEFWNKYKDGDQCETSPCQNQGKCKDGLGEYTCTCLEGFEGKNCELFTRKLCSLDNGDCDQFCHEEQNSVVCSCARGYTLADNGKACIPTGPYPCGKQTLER
T4 sequence (P00742 235-488 limits assumed, chain 2 of 2): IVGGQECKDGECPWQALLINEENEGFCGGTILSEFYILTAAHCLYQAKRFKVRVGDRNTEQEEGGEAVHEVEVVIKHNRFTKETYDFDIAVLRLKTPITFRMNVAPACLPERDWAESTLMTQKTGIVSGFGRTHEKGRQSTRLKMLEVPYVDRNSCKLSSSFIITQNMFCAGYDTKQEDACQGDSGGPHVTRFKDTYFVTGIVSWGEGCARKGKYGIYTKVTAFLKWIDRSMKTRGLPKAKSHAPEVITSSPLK
T2 sequence (P00742 41-179 limits assumed, chain 1 of 2): as the sequence (P00742 41-179 limits assumed, chain 1 of 2) above
T2 sequence (P00742 235-488 limits assumed, chain 2 of 2): as the sequence (P00742 235-488 limits assumed, chain 2 of 2) above

B1: LEAI.472 (other)
chain: SPVDICTAKPRDIPMNPMCIYRSPEKKATEDEGSEQKIPEATNRRVWELSKANSRFATTFYQHLADSKNDNDNIFLSPLSISTAFAMTKLGACNDTLQQLMEVFKFDTISEKTSDQIHFFFAKLNCRLYRKANKASKLVSANRLFGDKSLTFNETYQDISELVYGAKLQPLDFKENAEQSRAAINKWVSNKTEGRITDVIPSEAINELTVLVLVNTIYFKGLWKSKFSPENTRKELFYKADGESCSASMMYQEGKFRYRRVAEGTQVLELPFKGDDITMVLILPKPEKSLAKVEKELTPEVLQEWLDELEEMMLVVHMPRFRIEDGFSLKEQLQDMGLVDLFSPEKSKLPGIVAEGRDDLYVSDAFHKAFLEVNEEGSEAAASTALEANGRSLNPNRVTFKANRPFLVFIREVPLNTIIFMGRVANPCVK
For B1, the “Kapp as a percentage of the plasma ATIII value” (“Kapp as a percentage” for short) [1] was 4%, the “kapp (apparent second-order inhibition rate constant)” value [2] was 1800 M⁻¹ s⁻¹ and the “IC50 IIa/UFH; HCA #3” value [3] was 0.11 µM. The “IC50 IIa/UFH; HCA #4” value [3] was 0.2 µM, the “rsd. IIa catG; CA #15; stg1 conc 200” value [3] was 1% and the “rsd. IIa hne; CA #15; stg1 conc 200” value [3] was 21%. The “rsd. IIa no add; CA #15; stg1 conc 200” value [3] was 0%, the “IC50 fXa/UFH; HCA #3” value [4] was 0.015 µM and the “IC50 fXa/UFH; HCA #4” value [4] was 0.038 µM. The “rsd. Xa catG; CA #15; stg1 conc 200” value [4] was 0%, the “rsd. Xa hne; CA #15; stg1 conc 200” value [4] was 1% and the “rsd. Xa no add; CA #15; stg1 conc 200” value [4] was 0%. For the same binder, the “kapp (apparent second-order inhibition rate constant)” value [5] was 278 M⁻¹ s⁻¹, the “Kapp as a percentage” value [6] was 86% and the “Kapp as a percentage” value [7] was 52%. The “Kapp as a percentage” value [8] was 3%.

B2: LEAI.472 (other)
chain: B1 chain
notes: Recombinant human ATIII variant made in Drosophila S2 cells on the S137A background
With B2 the “kapp (apparent second-order inhibition rate constant)” value [9] was 278 M⁻¹ s⁻¹, the “halflife, min (HNE/hep)” value [10] was 30.1 min and the “kapp (apparent second-order inhibition rate constant)” value [11] was 298000 M⁻¹ s⁻¹. The “kapp (apparent second-order inhibition rate constant)” value [12] was 1800 M⁻¹ s⁻¹.

B3: LEAI.482 (other)
chain: B1 chain with N389H
notes: as for B2
With B3 the “kapp (apparent second-order inhibition rate constant)” value [9] was 2920 M⁻¹ s⁻¹, the “halflife, min (HNE/hep)” value [10] was 25.3 min and the “kapp (apparent second-order inhibition rate constant)” value [11] was 831000 M⁻¹ s⁻¹. The “kapp (apparent second-order inhibition rate constant)” value [12] was 5360 M⁻¹ s⁻¹.

B4: LEAI.480 (other)
chain: B1 chain with N389Y
notes: as for B2
B4 was tested, and the “kapp (apparent second-order inhibition rate constant)” value [9] was 7310 M⁻¹ s⁻¹, the “halflife, min (HNE/hep)” value [10] was 19.9 min and the “kapp (apparent second-order inhibition rate constant)” value [11] was 489000 M⁻¹ s⁻¹. The “kapp (apparent second-order inhibition rate constant)” value [12] was 24100 M⁻¹ s⁻¹.

— patent US20060259987A1 (UNIVERSITY OF UTAH RESEARCH FOUNDATION, published 2006)
